Data: the RNAGym collection of RNA variant scans (doi:10.1021/acssynbio.7b00057)

B1: Pistol ribozyme (parent)
chain: GGGUCGUUGUUCCAUAAUCGCGUGGAUAUGGCACGCAAGUUUCUACCGGGCACCGUAAAUGUCCGACUGGAGCCGUUCGGGCGGCUAUAAACAGACCUCAGGCCCGAAGCGUGGCGGCACCUGCCGCCGGUGGUAAAAAAGAUCGGAAGAGCACACGUCU

Variants of: B1
Test: aptazyme ON/OFF ratio, guanine; higher = stronger switching; co-transcriptional cleavage with and without guanine

Aptazyme ON/OFF ratio, 1.32:
U7G G9U U11A C12U
U7A U8G G9U U10A C12U C13A

Aptazyme ON/OFF ratio, 1.27:
U7C U8A G9C U10A U11A
U7A U8C U10G U11C C13U
U7C U8G G9A U11G C12U C13A
U10G U11C C12U C13G

Aptazyme ON/OFF ratio, 1.25:
U7G U8A U10A C13U
U8G G9A U11C C12G
U10G C12A C13A

Aptazyme ON/OFF ratio, 1.87:
U7G U8C G9U U10C C12G

Aptazyme ON/OFF ratio, 1.01:
U7A G9C U10C U11C C13G
U7G U8A U10C U11C C13U
U7C U8C G9A U10G U11C C13G

Aptazyme ON/OFF ratio, 1.51:
U7G G9C U10G C12G

Aptazyme ON/OFF ratio, 1.1:
U7A G9C U10A U11A C12G C13U
U7A U8A U10A U11C C12U C13G

Aptazyme ON/OFF ratio, 1.28:
U7A U8G U10G C12U C13G
U7A G9A U11G C12A C13U

Aptazyme ON/OFF ratio, 1.11:
U7G U8G G9A U11A C13U
U7C G9A U11C C12U C13U
U7A U8A G9A U11G C12A
U8C U10G C12A C13G

Aptazyme ON/OFF ratio, 1.22:
U8C G9A U11G C12A C13A
G9U U10A C12A C13A
U7G G9U U10C C12G C13G
U7G G9U U10C U11G C12U C13A
U8G G9C U11G C12U

Aptazyme ON/OFF ratio, 1.12:
U7C G9C U10G U11C C12G C13U
U7G U8A G9U U10C U11A C12A
U7C U8G U11A C12U C13U

Aptazyme ON/OFF ratio, 1.16:
U7A G9A U10A U11C C12A
U7G G9C U10G U11C C13G

Aptazyme ON/OFF ratio, 1.74:
U7G G9U U11G C12G

Aptazyme ON/OFF ratio, 1.34:
U7G U8C G9C U11C C12U C13U
G9A U11A C13U

Aptazyme ON/OFF ratio, 1.17:
U7G U8A U10A U11G C12A C13A
U8A U10C U11A C13A
U7C G9A C13U
U7G G9C U11G C12G C13A
U7C U8G G9A U11A C12U C13G
U7C U8A U10A U11A C13A

Aptazyme ON/OFF ratio, 1.21:
U7A U8G G9C U10A U11G C12U C13A
U7A U8A U11C C12U C13G
U7C U8A U10G U11G C12U C13A

Aptazyme ON/OFF ratio, 1.4:
U7A U8G G9U U11G C13G
G9A U10C U11G C12U C13U

Aptazyme ON/OFF ratio, 1.15:
U8A U10A U11G C12G C13G
U8G U10A U11G C12U C13A
U7G U8A U10G U11A C12A C13G
U7A U8C G9A U10C U11A C12U C13G
U7G U8G U10G U11C C12U C13G

Aptazyme ON/OFF ratio, 1.05:
U7G U8G G9C U10G U11G C12U C13G
U8A G9U U10C C12A C13U
U7G U8A G9U U10G U11C C12U
U7C U8C G9C U10G U11A C12G C13A
U7C U8G U10A U11C C12A C13G
U7C G9C U10C U11C C12A C13G
U8G G9A U10C U11C C12G

Aptazyme ON/OFF ratio, 1.07:
U8C G9C U11A C12G C13U
U7C U8G G9A U10C U11C C12G C13U
U8G U10C C12A C13G
U7A G9C U10G U11C C12U C13G
U7C G9A U10C U11C C12A C13A
U7C G9A U11G C13G
U7A G9C U10G U11A C12G C13A

Aptazyme ON/OFF ratio, 1.09:
U7A U8C G9A U10G U11G C12G C13G
U7C G9C U10G U11G C12G C13U
U7C U8A G9C U10G U11G C12A C13A
U7A U8C G9A C12U C13G
U7A U8A G9C U10C U11G C12G
U8C G9C U11G C12U C13A
U7G G9A U10G U11G C12A C13G

Aptazyme ON/OFF ratio, 1.3:
U7G U8G G9C U11G C12A C13U
U7C U10C C12U C13A
U7G G9A U11C C12U C13U
U7C U8C U11C C12A C13A
U7A U11C C12G C13A

Aptazyme ON/OFF ratio, 1.36:
U8C U10C U11C C12A C13U
U8C U11C C12G C13G

Aptazyme ON/OFF ratio, 1.23:
U7A U8C G9A U11C C12A C13U
U7A U8A G9C U10A U11A C13A
U7A U8A G9C U11G C12U C13G

Aptazyme ON/OFF ratio, 1.08:
U7G U8A G9A U10C U11C C12G C13U
U7A U8C G9U U10C C12U
U7G U8C U10A C13G
U7C U8A U10A U11C C12U C13A
U7A U8G G9C U10A U11G C12U
U7A U8G G9C U10C U11C C12G C13G
U7C G9C U10G C13G

Aptazyme ON/OFF ratio, 1.65:
U7G U8A G9A U10A U11G C12U

Aptazyme ON/OFF ratio, 1.5:
U8A G9U U11G C12U C13U

Aptazyme ON/OFF ratio, 1.29:
U8C G9A U11C C12G
U7C U10A U11A
U8C U10A C12A

Aptazyme ON/OFF ratio, 1.2:
U7A U8C G9A U10G C13G
U7A U8A G9U U10A U11A C12U C13A
U7A U8G G9C U10C U11A C12U C13U

Aptazyme ON/OFF ratio, 3.45:
G9U U10C U11G

Aptazyme ON/OFF ratio, 1.35:
U7G U8G G9A U11C C12G C13U
U7C G9U U11G

Aptazyme ON/OFF ratio, 1.14:
U7C U8A G9C U10A U11G C12A C13U
U7A U8A U10A C12G C13A
U7C U8C C12G C13G
U7A G9C U10A C12U

Aptazyme ON/OFF ratio, 1.44:
G9U U10G C12G C13A

Aptazyme ON/OFF ratio, 1.41:
U7A U8G U10C U11G C12G C13U

Aptazyme ON/OFF ratio, 1.31:
U7C U8G G9C U10A U11G C12U
U7A U10G C13A
U7A U8G U11G C12A
U7G U8G G9U U10C C13G

Aptazyme ON/OFF ratio, 1.02:
U7A U8A G9C U10C U11A C12A C13A
U7A G9A U11C
U7G U8A G9C U10C U11G C12G C13G
G9C U10C U11C C12U C13A

Aptazyme ON/OFF ratio, 1.96:
U7A G9A U10C

Aptazyme ON/OFF ratio, 1.47:
U7A U8A G9A U10A C12U C13U

Aptazyme ON/OFF ratio, 1.03:
U8G G9U U10G U11A C12U
G9A U11C C13A
U7C U8A G9C U10C U11A C12G
U7C U8G G9C U11G C13G
U7C U8A G9A U10C U11C C12U C13A
U8G G9U U10G U11A C12A C13G

Aptazyme ON/OFF ratio, 1.18:
U7C U8G G9A U10A U11A C12U
U7C U8G G9A U11G C12G C13U
U7C U8C G9A U10C U11A C12A C13A
U7A U8C G9A U10A U11A C13U
U7A U8A G9C U10A U11A C12U C13G

Aptazyme ON/OFF ratio, 1.54:
U7G U8A U10G C12U C13G

Aptazyme ON/OFF ratio, 1.24:
U7C U8G G9A U10A U11G C12U C13A
U7A U10C U11G C12G C13A
U7G U8G G9C U10C U11A C12G C13U

Aptazyme ON/OFF ratio, 1.58:
U10G C12U
U7C U8A G9A U10C C12U

Aptazyme ON/OFF ratio, 1.06:
U7A U8A G9C U10C U11A C12A

Aptazyme ON/OFF ratio, 1.43:
U7A G9U U10G C12U

Aptazyme ON/OFF ratio, 1.26:
U7A U8C G9C U10A U11C C12U C13G
U7G U8G U10G C12G C13U
U7G G9U U10A U11A C12A C13G

Aptazyme ON/OFF ratio, 1.42:
U7A U8C U10G U11A C12A
U8C G9U C12G

Aptazyme ON/OFF ratio, 1.19:
U7G U8G U10G C12A C13G
U7C U8G G9A U10G U11G C13U
U8C G9U U10A U11C C12U C13A
U7C U8G G9U U10A U11G C12G C13U
U7G U8C C12U C13G

Aptazyme ON/OFF ratio, 1.33:
U7A U8A U10G C12A
U7A U8G G9C U10G U11A C12U C13A
U7C U8A G9C U10G U11A C12A C13U
U7G U8C G9C U11G C12A C13G
U10A C12U C13G
U7A U8A G9U U10G C12U

Aptazyme ON/OFF ratio, 1.38:
U7G U8G G9U U11A C13U
U7C G9U U10G
U7A U8G G9U U11A C13A
U8A U11C C12U C13A

Aptazyme ON/OFF ratio, 1.39:
U7G C12U
U7A U8G G9C U10G U11A C12G C13G

Aptazyme ON/OFF ratio, 1.04:
U7A U8G G9C U10A U11C C12U
U7G U8A G9A U10G U11C C12G C13G
U7G U8G G9C U10A U11G C12U C13G
U7C U8C G9A U10A U11C C13G
U7C G9C U11C C12U
U7C G9C U10C U11C C13G
G9C U10C U11G C12A C13A
U8G G9C U10G U11C C12A C13A

Aptazyme ON/OFF ratio, 1.37:
U7G G9U U11G C12U C13G
U7A U8A U10A C12A C13U
